We go through 26 molecules from patent US20120190819A1 (MEDICAL RESEARCH COUNCIL, published 2012).

To fix the notation:
B1: STM peptide aptamer 09 (designed binder)
chain: MIPWGLSEAKPATPEIQEIVDKVKPQLEEKTNETYGKLEAVQYKTQVDAGTNYYIKVRAGDNKYMHLKVFNGPMLNKPLPSLPVGGPGLNKPLPSLPAAGPPGQNEDLVLTGYQVDKNKDDELTGF
notes: Insert (with its GP ends) constrained in STM
B2: STM peptide aptamer 07 (designed binder)
chain: MIPWGLSEAKPATPEIQEIVDKVKPQLEEKTNETYGKLEAVQYKTQVDAGTNYYIKVRAGDNKYMHLKVFNGPPNVKPLPALPLMGPLLNKPLPALPLDGPPGQNEDLVLTGYQVDKNKDDELTGF
notes: as for B1
B3: STM peptide aptamer 02 (designed binder)
chain: MIPWGLSEAKPATPEIQEIVDKVKPQLEEKTNETYGKLEAVQYKTQVDAGTNYYIKVRAGDNKYMHLKVFNGPVLNKPLPSLPVMGPTPNKPLPPLPAAGPPGQNEDLVLTGYQVDKNKDDELTGF
notes: as for B1
B4: STM peptide aptamer 06 (designed binder)
chain: MIPWGLSEAKPATPEIQEIVDKVKPQLEEKTNETYGKLEAVQYKTQVDAGTNYYIKVRAGDNKYMHLKVFNGPVVNKPLPSLPVKGPDVNKPLPSLPAVGPPGQNEDLVLTGYQVDKNKDDELTGF
notes: as for B1
B5: STM peptide aptamer 04 (designed binder)
chain: MIPWGLSEAKPATPEIQEIVDKVKPQLEEKTNETYGKLEAVQYKTQVDAGTNYYIKVRAGDNKYMHLKVFNGPYLNRPLPSLPAYGPWVNRPLPSLPLSGPPGQNEDLVLTGYQVDKNKDDELTGF
notes: as for B1
B6: STM peptide aptamer 01 (designed binder)
chain: MIPWGLSEAKPATPEIQEIVDKVKPQLEEKTNETYGKLEAVQYKTQVDAGTNYYIKVRAGDNKYMHLKVFNGPVPNKPLPALPVIGPGVNKPLPALPAHGPIRNKPLPSLPASGPPGQNEDLVLTGYQVDKNKDDELTGF
notes: as for B1
B7: control peptide aptamer RLNKPLPSLPVG* (truncated STM) (designed binder)
chain: MIPWGLSEAKPATPEIQEIVDKVKPQLEEKTNETYGKLEAVQYKTQVDAGTNYYIKVRAGDNKYMHLKVFNGPRLNKPLPSLPVG
notes: Ends at a stop codon after the added G (unconstrained control)
B8: re-constrained AptA, RLNKPLPSLPVH in full-length STM (designed binder)
chain: MIPWGLSEAKPATPEIQEIVDKVKPQLEEKTNETYGKLEAVQYKTQVDAGTNYYIKVRAGDNKYMHLKVFNGPRLNKPLPSLPVHGPPGQNEDLVLTGYQVDKNKDDELTGF
notes: Stop codon of AptA replaced, making a full-length aptamer constrained in STM
B9: re-constrained AptA, RLNKPLPSLPVI in full-length STM (designed binder)
chain: MIPWGLSEAKPATPEIQEIVDKVKPQLEEKTNETYGKLEAVQYKTQVDAGTNYYIKVRAGDNKYMHLKVFNGPRLNKPLPSLPVIGPPGQNEDLVLTGYQVDKNKDDELTGF
notes: as for B8
B10: re-constrained AptA, RLNKPLPSLPVW in full-length STM (designed binder)
chain: MIPWGLSEAKPATPEIQEIVDKVKPQLEEKTNETYGKLEAVQYKTQVDAGTNYYIKVRAGDNKYMHLKVFNGPRLNKPLPSLPVWGPPGQNEDLVLTGYQVDKNKDDELTGF
notes: as for B8
B11: re-constrained AptA, RLNKPLPSLPVC in full-length STM (designed binder)
chain: MIPWGLSEAKPATPEIQEIVDKVKPQLEEKTNETYGKLEAVQYKTQVDAGTNYYIKVRAGDNKYMHLKVFNGPRLNKPLPSLPVCGPPGQNEDLVLTGYQVDKNKDDELTGF
notes: as for B8
B12: re-constrained AptA, RLNKPLPSLPVM in full-length STM (designed binder)
chain: MIPWGLSEAKPATPEIQEIVDKVKPQLEEKTNETYGKLEAVQYKTQVDAGTNYYIKVRAGDNKYMHLKVFNGPRLNKPLPSLPVMGPPGQNEDLVLTGYQVDKNKDDELTGF
notes: as for B8
B13: re-constrained AptA, RLNKPLPSLPVF in full-length STM (designed binder)
chain: MIPWGLSEAKPATPEIQEIVDKVKPQLEEKTNETYGKLEAVQYKTQVDAGTNYYIKVRAGDNKYMHLKVFNGPRLNKPLPSLPVFGPPGQNEDLVLTGYQVDKNKDDELTGF
notes: as for B8
B14: re-constrained AptA, RLNKPLPSLPVL in full-length STM (designed binder)
chain: MIPWGLSEAKPATPEIQEIVDKVKPQLEEKTNETYGKLEAVQYKTQVDAGTNYYIKVRAGDNKYMHLKVFNGPRLNKPLPSLPVLGPPGQNEDLVLTGYQVDKNKDDELTGF
notes: as for B8
B15: re-constrained AptA, RLNKPLPSLPVN in full-length STM (designed binder)
chain: MIPWGLSEAKPATPEIQEIVDKVKPQLEEKTNETYGKLEAVQYKTQVDAGTNYYIKVRAGDNKYMHLKVFNGPRLNKPLPSLPVNGPPGQNEDLVLTGYQVDKNKDDELTGF
notes: as for B8
B16: re-constrained AptA, RLNKPLPSLPVE in full-length STM (designed binder)
chain: MIPWGLSEAKPATPEIQEIVDKVKPQLEEKTNETYGKLEAVQYKTQVDAGTNYYIKVRAGDNKYMHLKVFNGPRLNKPLPSLPVEGPPGQNEDLVLTGYQVDKNKDDELTGF
notes: as for B8
B17: re-constrained AptA, RLNKPLPSLPVS in full-length STM (designed binder)
chain: MIPWGLSEAKPATPEIQEIVDKVKPQLEEKTNETYGKLEAVQYKTQVDAGTNYYIKVRAGDNKYMHLKVFNGPRLNKPLPSLPVSGPPGQNEDLVLTGYQVDKNKDDELTGF
notes: as for B8
B18: re-constrained AptA, RLNKPLPSLPVG in full-length STM (designed binder)
chain: MIPWGLSEAKPATPEIQEIVDKVKPQLEEKTNETYGKLEAVQYKTQVDAGTNYYIKVRAGDNKYMHLKVFNGPRLNKPLPSLPVGGPPGQNEDLVLTGYQVDKNKDDELTGF
notes: as for B8
B19: re-constrained AptA, RLNKPLPSLPVQ in full-length STM (designed binder)
chain: MIPWGLSEAKPATPEIQEIVDKVKPQLEEKTNETYGKLEAVQYKTQVDAGTNYYIKVRAGDNKYMHLKVFNGPRLNKPLPSLPVQGPPGQNEDLVLTGYQVDKNKDDELTGF
notes: as for B8
B20: re-constrained AptA, RLNKPLPSLPVP in full-length STM (designed binder)
chain: MIPWGLSEAKPATPEIQEIVDKVKPQLEEKTNETYGKLEAVQYKTQVDAGTNYYIKVRAGDNKYMHLKVFNGPRLNKPLPSLPVPGPPGQNEDLVLTGYQVDKNKDDELTGF
notes: as for B8
B21: re-constrained AptA, RLNKPLPSLPVV in full-length STM (designed binder)
chain: MIPWGLSEAKPATPEIQEIVDKVKPQLEEKTNETYGKLEAVQYKTQVDAGTNYYIKVRAGDNKYMHLKVFNGPRLNKPLPSLPVVGPPGQNEDLVLTGYQVDKNKDDELTGF
notes: as for B8
B22: re-constrained AptA, RLNKPLPSLPVY in full-length STM (designed binder)
chain: MIPWGLSEAKPATPEIQEIVDKVKPQLEEKTNETYGKLEAVQYKTQVDAGTNYYIKVRAGDNKYMHLKVFNGPRLNKPLPSLPVYGPPGQNEDLVLTGYQVDKNKDDELTGF
notes: as for B8
B23: re-constrained AptA, RLNKPLPSLPVT in full-length STM (designed binder)
chain: MIPWGLSEAKPATPEIQEIVDKVKPQLEEKTNETYGKLEAVQYKTQVDAGTNYYIKVRAGDNKYMHLKVFNGPRLNKPLPSLPVTGPPGQNEDLVLTGYQVDKNKDDELTGF
notes: as for B8
B24: re-constrained AptA, RLNKPLPSLPVK in full-length STM (designed binder)
chain: MIPWGLSEAKPATPEIQEIVDKVKPQLEEKTNETYGKLEAVQYKTQVDAGTNYYIKVRAGDNKYMHLKVFNGPRLNKPLPSLPVKGPPGQNEDLVLTGYQVDKNKDDELTGF
notes: as for B8
B25: re-constrained AptA, RLNKPLPSLPVR in full-length STM (designed binder)
chain: MIPWGLSEAKPATPEIQEIVDKVKPQLEEKTNETYGKLEAVQYKTQVDAGTNYYIKVRAGDNKYMHLKVFNGPRLNKPLPSLPVRGPPGQNEDLVLTGYQVDKNKDDELTGF
notes: as for B8
B26: re-constrained AptA, RLNKPLPSLPVA in full-length STM (designed binder)
chain: MIPWGLSEAKPATPEIQEIVDKVKPQLEEKTNETYGKLEAVQYKTQVDAGTNYYIKVRAGDNKYMHLKVFNGPRLNKPLPSLPVAGPPGQNEDLVLTGYQVDKNKDDELTGF
notes: as for B8

T1 sequence (P40073 300-367 limits assumed): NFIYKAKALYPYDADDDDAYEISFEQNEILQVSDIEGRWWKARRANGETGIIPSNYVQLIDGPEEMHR

One experiment addresses T1, SH3 domain of yeast Sho1p (yeast two-hybrid bait, pEG202-Sho1-SH3) (yeast, UniProt P40073 300-367, limits assumed).
T1 construct: domain: SH3 domain; also called Sho1p SH3 domain
Description: yeast two-hybrid screen, confirmed by interaction mating. The source says: Degenerate oligonucleotide cassettes were made by annealing and amplifying P20 and P21 encoding a biased library designed around the Pbs2p proline rich sequence ([…]) (SEQ ID NO: 33) that interacts with the SH3 domain of Sho1p. Translation of the cassette gives X(L/V/P/A)N(K/R)PLP(P/S/A)LP(L/V/P/A)X (SEQ ID NO: 34). At the DNA level, this oligonucleotide should give rise to a library with a theoretical complexity of 98,304. The cassette was ligated into STM pJG4-5, and grown up in XL10 Gold cells (Stratagene). The midi-prepped (Qiagen) DNA was used to create a yeast library of 6×10⁴ cells in EGY48, theoretically covering 60% of the sequences encoded by the library. These cells were mated with EGY42 cells carrying pEG202-Sho1-SH3, made as described above. Interactors were selected on -UHTL/X-Gal/Gal-Raff plates for 4 days, picked and the plasmids rescued into E. coli KC8 cells. The plasmids were transformed back into EGY48 to confirm interaction with the SH3 domain of Sho1p in EGY42 using an interaction-mating matrix.
B1: the binding result is given as “binds”.
Still for that read-out and setting: for B2 the value was “binds”; for B3, “binds”.
Take B4: the binding result is recorded as “binds”.
On the same count and under the same terms, under B5 stands “binds”; under B6, “binds”.

In another experiment the target is T1, SH3 domain of yeast Sho1p (yeast …). Description: yeast two-hybrid, Sho1-SH3 binding. The text has this: We noted that other peptides containing a leucine at −5 (such as Apt03 and 05) were not inhibitory. Unlike AptA, these two peptide aptamers are constrained. To test the idea that constraint prevents the PPII helix of peptide aptamers such as Apt03 and 05 from productive interaction with Sho1 SH3, we replaced the C-terminal stop codon of AptA with codons encoding each amino acid residue in turn to make AptA a full-length peptide aptamer constrained in STM. After re-constraint, only one of the seven amino acid residues P, V, C, D, H, F and W at +5 allow binding to Sho1 SH3 in the context of a constrained protein (Table IV). This contrasts with the findings of Feng et al [Feng S, Chen J K, Yu H, Simon J A, Schreiber S L. 1994. Two binding orientations for peptides to the Src SH3 domain: development of a general model for SH3-ligand interactions. Science. 266: 1241-7] and Rickles et al [Rickles R J, Botfield M C, Zhou X M, Henry P A, Brugge J S, Zoller M J. 1995. Phage display selection of ligand residues important for Src homology 3 domain binding specificity. Proc Natl Acad Sci USA. […] In addition, none of the constrained AptA variants show the ability to inhibit Pbs2-Hog1 activation (Table IV). […] They further indicate that in the context of STM, the presence of one of the 7 permissive residues at position +5 either allows the formation of a left handed type II polyproline helix or allows interaction at a surface on Sho1 distinct from the SH3 domain.
With B7, the binding result is recorded as “binds”.
On to B8, for which the binding result is recorded as “binds”.
For the molecule B9, the binding result was “no binding”.
Take B10: the binding result is recorded as “binds”.
Turning to B11, the binding result is “binds”.
In the case of B12, the binding result is recorded as “no binding”.
As to B13, the binding result was “binds”.
Regarding B14, the binding result was “no binding”.
Still for that read-out and setting: for B15 the value was “binds”; for B16, “no binding”.
Consider B17, for which the binding result is “no binding”.
Turning to B18, the binding result is recorded as “no binding”.
Take B19: the binding result is reported as “no binding”.
Consider B20, for which the binding result is recorded as “binds”.
For B21, the binding result was “binds”.
Same read-out and setting: for B22 the value was “no binding”; for B23, “no binding”; for B24, “binds”.
For the molecule B25, the binding result is listed as “no binding”.
For the molecule B26, the binding result is “no binding”.
